Non-standard residues stand in square brackets, D forms with d. Phe(4-N3) = [N-]=[N+]=Nc1ccc(C[C@H](N)C(=O)O)cc1
What was measured:
Format in all cases: physicochemical
[1] = Cryo-TEM micelle core size, inter-core spacing and aspect ratio; conditions: Table 6, mean ± standard deviation; for Spacing (nm): inter-core spacing
Experimental: Using the data from FIG. 18, particularly the longest straight line of an individual particle and a corresponding perpendicular measurement were made to describe the aspect ratio of particles observed.
Cryo-TEM experiments were performed at Duke University's Shared Materials Instrumentation Facility (Durham, N.C.). Lacey holey carbon grids (Ted Pella, Redding, Calif.) were glow discharged in a PELCO EasiGlow Cleaning System (Ted Pella, Redding, Calif.). A 3 μL drop (10 μM RLPn-ELP80) was deposited onto the grid, blotted for 3 s with an offset of −3 mm, and vitrified in liquid ethane using the Vitrobot Mark III (FEI, Eindhoven, Netherlands). Prior to vitrification, the sample chamber was maintained at 15° C. and 100% relative humidity to prevent sample evaporation. Grids were transferred to a Gatan 626 cryoholder (Gatan, Pleasanton, Calif.) and imaged with a FEI Tecnai G2 Twin TEM (FEI, Eindhoven, Netherlands), operating at 80 keV. Feature sizes and spacing distances were measured in ImageJ by manual measurement of at least 25 particles.

[2] = Static and dynamic light scattering (SLS/DLS) of block co-polypeptides; conditions: Table 5; for Nagg / Rg(nm) / Rh (nm): 10 μM in PBS, 15 °C; for ρ: shape factor Rg/Rh
Experimental: Key parameters of interest are the hydrophilicity of the corona-forming block, the hydrophilicity of the core block, the overall length of the co-polypeptide and the ratio of the two blocks. Parameters of evaluation are the size, morphology, stability, and thermoresponsive behavior. All measurements were made in 140 mM NaCl, 10 mM phosphate buffer, 3 mM KCl, pH 7.4 unless otherwise specified. Size was evaluated by the hydrodynamic radios (Rh) and radius of gyration (Rg) by dynamic light scattering (DLS) and static light scattering (SLS) respectively. Rg and Rh can be combined to yield the shape factor ρ=Rg/Rh, which provides a rough indication of the morphology of the scatterer. […] For an elongated scatterer, the shape factor depends upon the aspect ratio. A combination of temperature dependent turbidity and DLS was utilized to determine the phase behavior of the block co-polypeptides. Cryogenic transmission electron microscopy (Cryo-TEM) was utilized to evaluate the morphology and provide crucial insight into the hydration of the core/corona chains. Stability of the assembled nanostructure was determined by a shift in the I1/I3 fluorescent bands of pyrene as described previously.
Static and dynamic light scattering measurements (SLS/DLS) were performed using an ALV/CGS-3 goniometer system (Langen, Germany). Samples for the ALV/CGS-3 goniometer system were prepared at a concentration of 10 μM in PBS and filtered through 0.45 μm Millex-GV filters into a 10 mm disposable borosilicate glass tube (Fischer). Simultaneous SLS and DLS measurements were obtained at 15° C. of the ELP for angles between 30°-150° at 5° increments, with each angle consisting of 3 runs for 15 s. SLS experiments were only conducted for self-assembling block co-polypeptides, since the molecular weight of a single block co-polypeptide chain is already known, and the Rg of a single chain is likely near or below the detection limit of the SLS instrument. The differential refractive index (dn/dc) was determined by measuring the refractive index at different concentrations using an Abbemat 500 refractometer (Anton Paar, Graz, Austria). DLS data were analyzed by fitting the autocorrelation function with a cumulant fit, using the built-in ALV software. Hydrodynamic radius (Rh) was plotted against angle and extrapolated to zero. SLS data were analyzed by partial Zimm plots using ALVSTAT software in order to determine the Rg and molecular weight (MW).

[3] = DLS of native and crosslinked pAzF diblock constructs in PBS and GuHCl
Description: We wanted to thoroughly investigate the effects of pAzF-introduction as well as nanoparticle crosslinking on nanoparticle self-assembly. For this, we started by characterizing solely our five different ELP/RLP diblock architectures without any C-terminal functionalization. After expression and purification of the diblock constructs using ITC, the pAzF-containing constructs were crosslinked in solution by exposure to UV irradiation and characterized using dynamic light scattering (DLS). […] Generally, both processes seem to have increased the measured radii with this effect being more pronounced for the worm-forming constructs.
Apart from changes in nanoparticle morphology we were particularly interested in the effect pAzF-crosslinking had on their stability. […] GuHCl is a well-known denaturing agent that disrupts any inter- and intramolecular electrostatic forces and completely breaks down the quaternary, tertiary and secondary structure of most known proteins. Covalent bonds—such as the ones formed by pAzF-crosslinking—however remain unaffected by GuHCl, thus, the addition of this denaturing agent was expected to give us insights on the stability of our crosslinked nanoparticles. […] All native samples on the other hand resorted to complete unimerization upon exposure to GuHCl. As the Rh values for the crosslinked particles in GuHCl were generally larger than in PBS, the DLS data furthermore indicates a swelling behavior in the presence of the denaturing agent. This can most probably be attributed to the RLP core which is assumed to be completely collapsed in PBS but will however try to reach an elongated, random-coil morphology in the presence of GuHCl.
The first step of the characterization process was to produce crosslinked particles for the functionalized diblock constructs and to analyze whether the attachment of the ligands had caused any significant changes in particle size. […] Whatever the reason was, it had no effect on the crosslinking process as the particles still remained stable after GuHCl exposure.
Dynamic light scattering of cross-linkable protein nanoparticles was performed. […] However, these crosslinked particles remain assembled, actually growing slightly in size due to chain swelling of the core and corona in this new buffer. These novel scaffolds support various targeting domains and assemble into nearly identically sized nanoparticles between […] in hydrodynamic radius.

B1: RLP80-ELPV80: RLP-ELP block co-polypeptide with Val guest residue in the corona (protein)
chain: QYPSDGRGQYPSDGRGQYPSDGRGQYPSDGRGQYPSDGRGQYPSDGRGQYPSDGRGQYPSDGRGQYPSDGRGQYPSDGRGQYPSDGRGQYPSDGRGQYPSDGRGQYPSDGRGQYPSDGRGQYPSDGRGQYPSDGRGQYPSDGRGQYPSDGRGQYPSDGRGQYPSDGRGQYPSDGRGQYPSDGRGQYPSDGRGQYPSDGRGQYPSDGRGQYPSDGRGQYPSDGRGQYPSDGRGQYPSDGRGQYPSDGRGQYPSDGRGQYPSDGRGQYPSDGRGQYPSDGRGQYPSDGRGQYPSDGRGQYPSDGRGQYPSDGRGQYPSDGRGQYPSDGRGQYPSDGRGQYPSDGRGQYPSDGRGQYPSDGRGQYPSDGRGQYPSDGRGQYPSDGRGQYPSDGRGQYPSDGRGQYPSDGRGQYPSDGRGQYPSDGRGQYPSDGRGQYPSDGRGQYPSDGRGQYPSDGRGQYPSDGRGQYPSDGRGQYPSDGRGQYPSDGRGQYPSDGRGQYPSDGRGQYPSDGRGQYPSDGRGQYPSDGRGQYPSDGRGQYPSDGRGQYPSDGRGQYPSDGRGQYPSDGRGQYPSDGRGQYPSDGRGQYPSDGRGQYPSDGRGQYPSDGRGQYPSDGRGQYPSDGRGQYPSDGRGQYPSDGRGGVGVPGVGVPGVGVPGVGVPGVGVPGVGVPGVGVPGVGVPGVGVPGVGVPGVGVPGVGVPGVGVPGVGVPGVGVPGVGVPGVGVPGVGVPGVGVPGVGVPGVGVPGVGVPGVGVPGVGVPGVGVPGVGVPGVGVPGVGVPGVGVPGVGVPGVGVPGVGVPGVGVPGVGVPGVGVPGVGVPGVGVPGVGVPGVGVPGVGVPGVGVPGVGVPGVGVPGVGVPGVGVPGVGVPGVGVPGVGVPGVGVPGVGVPGVGVPGVGVPGVGVPGVGVPGVGVPGVGVPGVGVPGVGVPGVGVPGVGVPGVGVPGVGVPGVGVPGVGVPGVGVPGVGVPGVGVPGVGVPGVGVPGVGVPGVGVPGVGVPGVGVPGVGVPGVGVPGVGVPGVGVPGVGVPGVGVPGVGVP
[1]
  Spacing (nm): 29.6 ± 3.8 nm
  Core radius (nm): 14.2 ± 2.4 nm
[2]
  Nagg: 693
  Rg(nm): 94.4 nm
  Rh (nm): 71.0 nm
  ρ: 1.31

B2: RLP40-ELPS80: RLP-ELP block co-polypeptide with Ser guest residue in the corona (protein)
chain: QYPSDGRGQYPSDGRGQYPSDGRGQYPSDGRGQYPSDGRGQYPSDGRGQYPSDGRGQYPSDGRGQYPSDGRGQYPSDGRGQYPSDGRGQYPSDGRGQYPSDGRGQYPSDGRGQYPSDGRGQYPSDGRGQYPSDGRGQYPSDGRGQYPSDGRGQYPSDGRGQYPSDGRGQYPSDGRGQYPSDGRGQYPSDGRGQYPSDGRGQYPSDGRGQYPSDGRGQYPSDGRGQYPSDGRGQYPSDGRGQYPSDGRGQYPSDGRGQYPSDGRGQYPSDGRGQYPSDGRGQYPSDGRGQYPSDGRGQYPSDGRGQYPSDGRGQYPSDGRGGSGVPGSGVPGSGVPGSGVPGSGVPGSGVPGSGVPGSGVPGSGVPGSGVPGSGVPGSGVPGSGVPGSGVPGSGVPGSGVPGSGVPGSGVPGSGVPGSGVPGSGVPGSGVPGSGVPGSGVPGSGVPGSGVPGSGVPGSGVPGSGVPGSGVPGSGVPGSGVPGSGVPGSGVPGSGVPGSGVPGSGVPGSGVPGSGVPGSGVPGSGVPGSGVPGSGVPGSGVPGSGVPGSGVPGSGVPGSGVPGSGVPGSGVPGSGVPGSGVPGSGVPGSGVPGSGVPGSGVPGSGVPGSGVPGSGVPGSGVPGSGVPGSGVPGSGVPGSGVPGSGVPGSGVPGSGVPGSGVPGSGVPGSGVPGSGVPGSGVPGSGVPGSGVPGSGVPGSGVPGSGVPGSGVPGSGVPGSGVP
[1]
  Spacing (nm): 20.0 ± 2.6 nm
  Core radius (nm): 13.1 ± 2.7 nm
[2]
  Nagg: 80
  Rg(nm): 27.2 nm
  Rh (nm): 33.0 nm
  ρ: 0.82

B3: RLP80-ELPS80: RLP-ELP block co-polypeptide with Ser guest residue in the corona (protein)
chain: QYPSDGRGQYPSDGRGQYPSDGRGQYPSDGRGQYPSDGRGQYPSDGRGQYPSDGRGQYPSDGRGQYPSDGRGQYPSDGRGQYPSDGRGQYPSDGRGQYPSDGRGQYPSDGRGQYPSDGRGQYPSDGRGQYPSDGRGQYPSDGRGQYPSDGRGQYPSDGRGQYPSDGRGQYPSDGRGQYPSDGRGQYPSDGRGQYPSDGRGQYPSDGRGQYPSDGRGQYPSDGRGQYPSDGRGQYPSDGRGQYPSDGRGQYPSDGRGQYPSDGRGQYPSDGRGQYPSDGRGQYPSDGRGQYPSDGRGQYPSDGRGQYPSDGRGQYPSDGRGQYPSDGRGQYPSDGRGQYPSDGRGQYPSDGRGQYPSDGRGQYPSDGRGQYPSDGRGQYPSDGRGQYPSDGRGQYPSDGRGQYPSDGRGQYPSDGRGQYPSDGRGQYPSDGRGQYPSDGRGQYPSDGRGQYPSDGRGQYPSDGRGQYPSDGRGQYPSDGRGQYPSDGRGQYPSDGRGQYPSDGRGQYPSDGRGQYPSDGRGQYPSDGRGQYPSDGRGQYPSDGRGQYPSDGRGQYPSDGRGQYPSDGRGQYPSDGRGQYPSDGRGQYPSDGRGQYPSDGRGQYPSDGRGQYPSDGRGQYPSDGRGQYPSDGRGQYPSDGRGGSGVPGSGVPGSGVPGSGVPGSGVPGSGVPGSGVPGSGVPGSGVPGSGVPGSGVPGSGVPGSGVPGSGVPGSGVPGSGVPGSGVPGSGVPGSGVPGSGVPGSGVPGSGVPGSGVPGSGVPGSGVPGSGVPGSGVPGSGVPGSGVPGSGVPGSGVPGSGVPGSGVPGSGVPGSGVPGSGVPGSGVPGSGVPGSGVPGSGVPGSGVPGSGVPGSGVPGSGVPGSGVPGSGVPGSGVPGSGVPGSGVPGSGVPGSGVPGSGVPGSGVPGSGVPGSGVPGSGVPGSGVPGSGVPGSGVPGSGVPGSGVPGSGVPGSGVPGSGVPGSGVPGSGVPGSGVPGSGVPGSGVPGSGVPGSGVPGSGVPGSGVPGSGVPGSGVPGSGVPGSGVPGSGVPGSGVPGSGVP
[1]
  Spacing (nm): 27.9 ± 4.0 nm
  Core radius (nm): 14.6 ± 2.2 nm
[2]
  Nagg: 392
  Rg(nm): 36.0 nm
  Rh (nm): 49.4 nm
  ρ: 0.73

B4: UAA2-40: pAzF-containing sphere-forming diblock construct, two pAzF residues per polypeptide chain (protein)
chain: QYPSDGRGQYPSDGRGQYPSDGRGQYPSDGRGQYPSDGRGQYPSDGRGQYPSDGRGQYPSDGRGQYPSDGRGQYPSDGRGQYPSDGRGQYPSDGRGQYPSDGRGQYPSDGRGQYPSDGRGQYPSDGRGQYPSDGRGQYPSDGRGQYPSDGRGQYPSDGRG[Phe(4-N3)]QYPSDGRGQYPSDGRGQYPSDGRGQYPSDGRGQYPSDGRGQYPSDGRGQYPSDGRGQYPSDGRGQYPSDGRGQYPSDGRGQYPSDGRGQYPSDGRGQYPSDGRGQYPSDGRGQYPSDGRGQYPSDGRGQYPSDGRGQYPSDGRGQYPSDGRGQYPSDGRG[Phe(4-N3)]
[3]; 15 μm in 7.2M GuHCl, crosslinked
  RH (nm): 54.1 ± 2.0 nm
[3]; 15 μm in 7.2M GuHCl, native (not crosslinked)
  RH (nm): 7.0 ± 1.1 nm
[3]; 15 μm in PBS, crosslinked
  RH (nm): 29.8 ± 0.3 nm
[3]; 15 μm in PBS, native (not crosslinked)
  RH (nm): 28.1 ± 0.2 nm

Reference: patent US20230093708A1, “PROTEIN NANOPARTICLE DESIGN AND APPLICATION” (Duke University, priority 2020, published 2023)
